US20230414702A1 (INSERM INSTITUT NATIONAL DE LA SANT ET DE LA REC HERCHE M …, published 2023)
Non-standard residues stand in square brackets, D forms with d. No end group written: not given here. NMeR = CN[C@@H](CCCNC(=N)N)C(=O)O; Nle = CCCC[C@H](N)C(=O)O

Key:
CD47 receptor [1] = biological target: T1, CD47 receptor (UniProt Q08722 19-323, limits assumed); assay: microscale thermophoresis (MST), labeled MEC-1 membrane preparation
T1 construct: whole, on cells; The assays used a whole MEC-1 cell membrane preparation, not purified CD47; also called membrane preparation from MEC-1 cells
Description: (§1) For all experiments the concentration of the NT.115-labeled membrane was kept constant, while the concentrations of the ligand (peptide) was varied. After a short incubation time (5 min) the samples were loaded into MST premium glass capillaries and the MST analysis was performed using the Monolith NT.115.

CD47 receptor [2] = biological target: T1, CD47 receptor; assay: column Kd(µM)PR; binding to MEC-1 membrane preparation, method not named in Table 4
CD47 receptor [3] = biological target: T1, CD47 receptor; assay: binding to MEC-1 membrane preparation; method not named in Table 3 (same value as the OR column of Table 2)
CD47 receptor [4] = biological target: T1, CD47 receptor; assay: column Kd (OR); biolayer interferometry on Octet RED96, biotinylated MEC-1 membrane preparation on SSA biosensors
CD47 receptor [5] = biological target: T1, CD47 receptor; assay: binding to MEC-1 membrane preparation; method not named in Table 3
CD47 receptor [6] = biological target: T1, CD47 receptor; assay: apparent Kd, microscale thermophoresis (MST), Monolith NT.115, NT.115-labeled membrane
Description: as §1

CD47 receptor [7] = biological target: T1, CD47 receptor; assay: apparent Kd, biolayer interferometry (BI) on Octet RED96, biotinylated MEC-1 membrane preparation on SSA biosensors
From the text: This system monitors interference of light reflected from two sources (an internal reflection surface and the liquid/solid interface of a fiber optic sensor) to measure the rate of binding of molecules to the biosensor surface. MEC-1 cells membrane preparation is biotinylated with the EZ-Link NHS-PEG4-Biotin kit from Thermo-Scientific and excess biotin is removed using desalting column from Thermo-Scientific. […] Typically, the biosensors were pre-equilibrated in PBS containing either biotinylated membranes or biocytine 100 μg/mL. Biosensors are then equilibrated in assay buffer for 10 min, brought to baseline in assay buffer for 60 sec. and transferred to wells containing peptide in dose-response (association for 120 sec. and dissociation for 300 sec.). The double reference with either membrane-loaded biosensors without any peptide dose-response or biocytine-loaded biosensors with each peptide dose-response were run in parallel for background signal double subtractions.

T1 sequence (Q08722 19-323 limits assumed): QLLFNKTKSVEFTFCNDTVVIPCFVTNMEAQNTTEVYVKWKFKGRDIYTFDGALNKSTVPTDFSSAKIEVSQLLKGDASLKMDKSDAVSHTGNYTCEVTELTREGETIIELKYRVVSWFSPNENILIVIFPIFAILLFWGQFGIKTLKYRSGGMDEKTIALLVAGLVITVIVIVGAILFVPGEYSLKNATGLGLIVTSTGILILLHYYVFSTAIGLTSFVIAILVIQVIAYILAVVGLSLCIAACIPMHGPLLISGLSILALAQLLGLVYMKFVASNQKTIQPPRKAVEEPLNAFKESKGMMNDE

Binder: KRFYVVMWKK ((D)-Lys at position 1 and (D)-Lys at position 10, also called 4(PKHB1)) [PKHB1, H-(D)K R F Y V V M W K (D)K-OH]
- Kd (CD47 receptor [1]): 3.04 µM
- Kd (CD47 receptor [2]): 22.6 µM
- Kd (CD47 receptor [3]): 43 µM
- Kd (CD47 receptor [4]): 43 µM

B1: PKT15, H-(D)K ψ(CONMe)R F Y V V M W ψ(CONMe)K (D)K-OH (peptide)
peptide: KRFYVVMWKK
modifications: (D)-Lys at positions 1 and 10; N-methyl pseudopeptide bonds ψ(CONMe) between (D)Lys1 and Arg2 and between Trp8 and Lys9
- Kd (CD47 receptor [2]): 16 µM

B2: M/Nle, kRFYVV(Nle)WKk (peptide)
peptide: H-[dK]RFYVV[Nle]WK[dK]-OH
SMILES: CCCC[C@H](NC(=O)[C@@H](NC(=O)[C@@H](NC(=O)[C@H](Cc1ccc(O)cc1)NC(=O)[C@H](Cc1ccccc1)NC(=O)[C@H](CCCNC(=N)N)NC(=O)[C@H](N)CCCCN)C(C)C)C(C)C)C(=O)N[C@@H](Cc1c[nH]c2ccccc12)C(=O)N[C@@H](CCCCN)C(=O)N[C@H](CCCCN)C(=O)O
- Kd (CD47 receptor [5]): 18 µM

Binder: H-[dK][NMeR]FYVV[Nle]WK[dK]-OH [PKT16, H-(D)K ψ(CONMe)R F Y V V X W K (D)K-OH]
- Kd (CD47 receptor [2]): 12.1 µM
- Kd (CD47 receptor [6]): 1.6 µM
- Kd (CD47 receptor [7]): 7.4 µM

B3: PKT11, H-(D)K ψ(CONMe)R F Y V V M W K (D)K-OH (peptide)
peptide: KRFYVVMWKK
modifications: (D)-Lys at positions 1 and 10; N-methyl pseudopeptide bond ψ(CONMe) between (D)Lys1 and Arg2
- Kd (CD47 receptor [2]): 21.7 µM

B4: 4N1K (peptide)
peptide: KRFYVVMWKK
notes: Decapeptide that mimics the C-terminal domain of TSP-1
- Kd (CD47 receptor [1]): 2.28 µM
- Kd (CD47 receptor [3]): 19 µM
- Kd (CD47 receptor [4]): 19 µM

Binder: [dK]RFYVVAWK[dK] (Ala-scan analogue of PKHB1) [M7/A, kRFYVV(A)WKk]
- Kd (CD47 receptor [5]): 42 µM

B5: K9/A, kRFYVVMW(A)k (peptide)
peptide: H-[dK]RFYVVMWA[dK]-OH
SMILES: CSCC[C@H](NC(=O)[C@@H](NC(=O)[C@@H](NC(=O)[C@H](Cc1ccc(O)cc1)NC(=O)[C@H](Cc1ccccc1)NC(=O)[C@H](CCCNC(=N)N)NC(=O)[C@H](N)CCCCN)C(C)C)C(C)C)C(=O)N[C@@H](Cc1c[nH]c2ccccc12)C(=O)N[C@@H](C)C(=O)N[C@H](CCCCN)C(=O)O
notes: Ala-scan analogue of PKHB1
- Kd (CD47 receptor [5]): 27 µM

B6: R2/A, k(A)FYVVMWKk (peptide)
peptide: H-[dK]AFYVVMWK[dK]-OH
SMILES: CSCC[C@H](NC(=O)[C@@H](NC(=O)[C@@H](NC(=O)[C@H](Cc1ccc(O)cc1)NC(=O)[C@H](Cc1ccccc1)NC(=O)[C@H](C)NC(=O)[C@H](N)CCCCN)C(C)C)C(C)C)C(=O)N[C@@H](Cc1c[nH]c2ccccc12)C(=O)N[C@@H](CCCCN)C(=O)N[C@H](CCCCN)C(=O)O
notes: Ala-scan analogue of PKHB1
- Kd (CD47 receptor [5]): 6.2 µM

B7: PKT17, H-(D)K ψ(CONMe)R F Y V V L W K (D)K-OH (peptide)
peptide: H-[dK][NMeR]FYVVLWK[dK]-OH
SMILES: CC(C)C[C@H](NC(=O)[C@@H](NC(=O)[C@@H](NC(=O)[C@H](Cc1ccc(O)cc1)NC(=O)[C@H](Cc1ccccc1)NC(=O)[C@H](CCCNC(=N)N)N(C)C(=O)[C@H](N)CCCCN)C(C)C)C(C)C)C(=O)N[C@@H](Cc1c[nH]c2ccccc12)C(=O)N[C@@H](CCCCN)C(=O)N[C@H](CCCCN)C(=O)O
- Kd (CD47 receptor [2]): 12 µM

Binder: Ac-KRFYVVMWKK-NH2 [peptide 2, Ac-KRFYVVMWKK-NH2]
- Kd (CD47 receptor [1]): 1.2 µM
- Kd (CD47 receptor [4]): 40 µM
